Reference: US6846803B1, “Antagonists specific for the corticotropin-releasing factor receptor type 2 (CRFR2)” (priority 1998, dated 2005)
Positions of bridges follow the written chain, without caps; N, C: chain ends. Non-standard residues stand in square brackets, D forms with d. No end group written: not given here. *: point of attachment. ATB = 4-(1-azi-2,2,2-trifluoroethyl)benzoyl, O=C(c1ccc(C2(C(F)(F)F)N=N2)cc1)*

T1: rat CRF receptor, type 1 (rCRFR1) (rat, UniProt P35353 24-415)
T1 construct: whole, on cells; cAMP assays on the whole cells; also called HEK-rCRFR1 cells
T1 sequence (looked up): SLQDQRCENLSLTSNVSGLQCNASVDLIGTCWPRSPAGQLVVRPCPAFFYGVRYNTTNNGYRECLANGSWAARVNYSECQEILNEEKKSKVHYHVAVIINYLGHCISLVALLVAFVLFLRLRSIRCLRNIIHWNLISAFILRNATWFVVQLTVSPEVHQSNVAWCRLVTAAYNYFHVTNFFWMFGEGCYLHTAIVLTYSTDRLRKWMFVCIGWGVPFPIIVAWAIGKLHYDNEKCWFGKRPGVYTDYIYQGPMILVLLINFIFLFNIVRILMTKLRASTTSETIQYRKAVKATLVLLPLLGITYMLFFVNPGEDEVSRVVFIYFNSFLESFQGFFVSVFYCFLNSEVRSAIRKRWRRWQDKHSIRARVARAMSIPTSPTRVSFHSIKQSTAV


Legend:
[1] = biological target: T1, rat CRF receptor, type 1 (rCRFR1); test: displacement of [125I-Tyr0]oCRF from HEK-rCRFR1 membranes
Description: Binding assays were performed in 96-well MultiScreen plates (Millipore, Eschborn, Germany) with GF/B filters (pore size 1.0 μm). […] After incubation (60 min, 23° C.), membrane suspension was aspirated through the plate, followed by two washes with assay buffer (0.2 ml, 23°). Radioactivity of the punched filters was measured with a 1470 WIZARD automatic gamma counter (Berthold, Hannover). […] Statistical analysis was performed with ANOVA, and significant differences between groups were determined by post hoc comparison using the Dunn test.

[2] = biological target: T1, rat CRF receptor, type 1 (rCRFR1); test: cell-based or functional assay
[3] = biological target: mouse CRF receptor, type 2β (mCRFR2β) (mouse) (UniProt Q60748); test: Kd(rCRFR1)/Kd(mCRFR2β) of the peptide normalised to that of astressin; radioligand displacement
[4] = biological target: T1, rat CRF receptor, type 1 (rCRFR1); test: cell-based or functional assay; remark: listed apart in the source

| Binder | Kd [1] [nM] | rel. IA (relative intrinsic activity), cAMP production, HEK-rCRFR1 cells [2] | rel. pot. (relative potency), inhibition of oCRF-stimulated cAMP production, HEK-rCRFR1 cells [2] | Selectivity [3] | % IA (intrinsic activity), cAMP production, HEK-rCRFR1 cells [4] |
| --- | --- | --- | --- | --- | --- |
| {ATB}-HLLRKMIEIEKQEKEKQQAANNRLLLDTI (ends and bridges not checked, also called compound 17) [ATB-[His^12]Svg(12-40)] | 142 | 0.15 relative, oCRF = 1.00 | 0.54 relative, oCRF = 1.00 | 32.3 |  |
| YLLRKMIEIEKQEKEKQQAANNRLLLDTI (ends and bridges not checked, also called compound 20) [[Tyr^12]Svg(12-40)] | 996 | 0.06 relative, oCRF = 1.00 | 0.9 relative, oCRF = 1.00 | 1.63 |  |
| [dF]HLLRKMIEIEKQEKEKQQAANNRLLLDTI (not fully specified (C-terminus)) [antisauvagine-30, [DPhe^11, His^12]Svg(11-40)] |  |  |  | 77 | 0.04 relative, oCRF = 1.00 |
| [dF]HLLRTILELARTQSQRERAEQNRIIFDSV (ends and bridges not checked) [[DPhe^11]rUcn(11-40)] |  |  |  |  | 0.07 relative, oCRF = 1.00 |
| [dL]ELLRTILELARTQSQRERAEQNRIIFDSV (ends and bridges not checked) [[DLeu^11, Glu^12]rUcn(11-40)] |  |  |  |  | 0.23 relative, oCRF = 1.00 |
| [dF]HLLRTILELARTQSQREEAEKNRIIFDSV (lactam 19-22; ends not checked) [cyclo(29-32)[DPhe^11, Glu^29, Lys^32]rUcn(11-40)] |  |  |  |  | 0.1 relative, oCRF = 1.00 |
| [dF]ELLRTILELARTQSQRERAEQNRIIFDSV (ends and bridges not checked) [[DPhe^11, Glu^12]rUcn(11-40)] |  |  |  |  | 0.22 relative, oCRF = 1.00 |
| [dF]HLLREVLEMTKADQLAQQAHSNRKLLDIA (ends and bridges not checked) [[DPhe^12]oCRF(12-41)] |  |  |  |  | 0.05 relative, oCRF = 1.00 |
